Measured values reported in patent US20110262366A1.
Values belong to the binder of their own block, whether it stands above or below them. Starred links: 1 amine or outer side, 2 acyl side, 3 side chain; linkers in the order of their positions; H or OH if unused. Positions of bridges follow the written chain, without caps; N, C: chain ends. Primed or numbered codes have the meaning given here. No end group written: not given here. DPPE′ = dipalmitoylphosphatidylethanolamine; Glutaryl = O=C(CCCC(=O)[*:2])[*:1]

What was measured:
[1] = target: endothelial cell receptor on HAEC (human aortic endothelial cells); assay: conjugated fluorescent beads on confluent HAEC, static 30 min, image analysis (Example 2, experiment 1)
[2] = target: endothelial cell receptor on HAEC (human aortic endothelial cells); assay: competition, 50 µM BRU-306 against 2% BRU-114 microbubbles (competitor) on HAEC, static
[3] = target: endothelial cell receptor on HAEC (human aortic endothelial cells); assay: competition, 100 µM BRU-306 against 2% BRU-114 microbubbles (competitor) on HAEC, static
[4] = target: endothelial cell receptor on HAEC (human aortic endothelial cells); assay: competition, 200 µM BRU-306 against 2% BRU-114 microbubbles (competitor) on HAEC, static
[5] = target: endothelial cell receptor on HAEC (human aortic endothelial cells); assay: TKPPR-beads perfused over HAEC in a parallel plate flow cell, 1.53 dynes/cm^2
[6] = target: VEGF receptors on HUVECs; assay: competition with ^125I-VEGF on HUVECs
[7] = target: endothelial cell receptor on HAEC (human aortic endothelial cells); assay: competition, 50 µM BRU-305 against 2% BRU-114 microbubbles (competitor) on HAEC, static
[8] = target: endothelial cell receptor on HAEC (human aortic endothelial cells); assay: competition, 100 µM BRU-305 against 2% BRU-114 microbubbles (competitor) on HAEC, static
[9] = target: endothelial cell receptor on HAEC (human aortic endothelial cells); assay: competition, 200 µM BRU-305 against 2% BRU-114 microbubbles (competitor) on HAEC, static
[10] = target: NP-1/Fc (Neuropilin-1/Fc, R&D Systems); assay: competition with 250 pM ^125I-VEGF165 on NP-1/Fc-coated plates, 4° C., 2 h
NP-1/Fc (Neuropilin-1/Fc, R&D Systems), sequence (Q9QWJ9 22-855): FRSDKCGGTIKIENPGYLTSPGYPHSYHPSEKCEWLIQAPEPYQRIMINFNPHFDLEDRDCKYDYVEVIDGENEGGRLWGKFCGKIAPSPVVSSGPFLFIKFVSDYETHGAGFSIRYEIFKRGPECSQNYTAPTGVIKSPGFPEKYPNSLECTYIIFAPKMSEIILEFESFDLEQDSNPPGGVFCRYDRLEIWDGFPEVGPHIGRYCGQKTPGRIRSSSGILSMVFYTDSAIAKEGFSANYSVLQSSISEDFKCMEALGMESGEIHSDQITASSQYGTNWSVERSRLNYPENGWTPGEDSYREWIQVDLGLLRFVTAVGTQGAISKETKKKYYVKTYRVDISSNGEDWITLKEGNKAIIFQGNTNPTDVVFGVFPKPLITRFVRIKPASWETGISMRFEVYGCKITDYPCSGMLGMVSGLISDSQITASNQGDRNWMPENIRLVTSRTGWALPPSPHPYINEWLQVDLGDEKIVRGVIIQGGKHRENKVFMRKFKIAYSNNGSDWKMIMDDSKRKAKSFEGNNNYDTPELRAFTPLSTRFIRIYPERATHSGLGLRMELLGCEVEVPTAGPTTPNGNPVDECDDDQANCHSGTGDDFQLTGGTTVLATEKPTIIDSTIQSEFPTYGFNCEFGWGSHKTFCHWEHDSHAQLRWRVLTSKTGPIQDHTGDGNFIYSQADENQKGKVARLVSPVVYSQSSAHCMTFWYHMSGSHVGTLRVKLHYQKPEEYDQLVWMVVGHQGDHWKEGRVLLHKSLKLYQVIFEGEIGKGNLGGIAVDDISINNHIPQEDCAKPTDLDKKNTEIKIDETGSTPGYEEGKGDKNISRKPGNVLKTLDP

[11] = target: endothelial cell receptor on HAEC (human aortic endothelial cells); assay: competition, 5 µM tuftsin against 1% BRU-114 microbubbles (competitor) on HAEC, static
[12] = target: endothelial cell receptor on HAEC (human aortic endothelial cells); assay: competition, 10 µM tuftsin against 1% BRU-114 microbubbles (competitor) on HAEC, static
[13] = target: endothelial cell receptor on HAEC (human aortic endothelial cells); assay: competition, 25 µM tuftsin against 1% BRU-114 microbubbles (competitor) on HAEC, static
[14] = target: endothelial cell receptor on HAEC (human aortic endothelial cells); assay: competition, 50 µM tuftsin against 1% BRU-114 microbubbles (competitor) on HAEC, static
[15] = target: endothelial cell receptor on HAEC (human aortic endothelial cells); assay: competition, 100 µM tuftsin against 1% BRU-114 microbubbles (competitor) on HAEC, static
[16] = target: endothelial cell receptor on HAEC (human aortic endothelial cells); assay: microbubbles with 5% DPPE-GTKPPR on HAEC, static
[17] = target: KB cells (human epidermoid carcinoma cell line); assay: microbubbles with 5% DPPE-GTKPPR on KB cells, static
[18] = target: endothelial cell receptor on HAEC (human aortic endothelial cells); assay: microbubbles with 1% BRU-114 on HAEC, static, no competitor
[19] = target: endothelial cell receptor on HAEC (human aortic endothelial cells); assay: microbubbles with 5% BRU-114 on HAEC, static, no competitor
[20] = target: endothelial cell receptor on HAEC (human aortic endothelial cells); assay: microbubbles with 10% BRU-114 on HAEC, static, no competitor
[21] = target: endothelial cell receptor on HAEC (human aortic endothelial cells); assay: microbubbles with 5% DPPE-GTKPPR on HAEC, static, after washing
[22] = target: endothelial cell receptor on HAEC (human aortic endothelial cells); assay: microbubbles with 5% DPPE-GTKPPR on HAEC, static, no competitor
[23] = target: endothelial cell receptor on RAEC (rabbit aortic endothelial cells); assay: microbubbles with 5% DPPE-GTKPPR on RAEC, static, no competitor
[24] = target: endothelial cell receptor on HAEC (human aortic endothelial cells); assay: microbubbles with 1% DPPE-GTKPPR on HAEC, static, no competition
[25] = target: endothelial cell receptor on HAEC (human aortic endothelial cells); assay: microbubbles with 5% DPPE-GTKPPR on HAEC, static, no competition
[26] = target: endothelial cell receptor on HAEC (human aortic endothelial cells); assay: microbubbles with 5% DPPE-GTKPPR on HAEC, static, no competitor (control)
[27] = target: endothelial cell receptor on HAEC (human aortic endothelial cells); assay: microbubbles on HAEC, static, manual counting, 5% against 1% DPPE-GTKPPR
[28] = target: endothelial cell receptor on HAEC (human aortic endothelial cells); assay: microbubbles with 2% BRU-114 on HAEC, static, no competitor (control set to 100)
[29] = target: endothelial cell receptor on HAEC (human aortic endothelial cells); assay: microbubbles with 1% BRU-114 on HAEC, static, no competitor, average of duplicates
[30] = target: endothelial cell receptor on HAEC (human aortic endothelial cells); assay: microbubbles with 2% BRU-114 on HAEC, static, no competitor, average of duplicates
[31] = target: endothelial cell receptor on HAEC (human aortic endothelial cells); assay: microbubbles with 5% DPPE-GTKPPR on HAEC, static; cells treated with 0 ng/mL TNFα for 4 h
[32] = target: endothelial cell receptor on HAEC (human aortic endothelial cells); assay: microbubbles with 5% DPPE-GTKPPR on HAEC, static; cells treated with 1 ng/mL TNFα for 4 h
[33] = target: endothelial cell receptor on HAEC (human aortic endothelial cells); assay: microbubbles with 5% DPPE-GTKPPR on HAEC, static; cells treated with 5 ng/mL TNFα for 4 h
[34] = target: endothelial cell receptor on HAEC (human aortic endothelial cells); assay: microbubbles with 5% DPPE-GTKPPR on HAEC, static; cells treated with 10 ng/mL TNFα for 4 h
[35] = target: endothelial cell receptor on HAEC (human aortic endothelial cells); assay: microbubbles with 5% DPPE-GTKPPR on HAEC, static, no competitor (same control as in the 16th table)

Binder: GRGDSP (also: coupled by EDAC to carboxylate-modified fluorescent FluoSpheres beads) [GRGDSP-conjugated fluorescent beads]
- Integrated density of bound beads (arbitrary units) [1]: 28.6

Binder: CTKPPRC (disulfide 1-7 (inferred)) [Cyclic disulfide CTKPPRC (BRU-306)]
- Bubbles Bound % (of control binding) [2]: 97 % of control
- Bubbles Bound % (of control binding) [3]: 71 % of control
- Bubbles Bound % (of control binding) [4]: 99 % of control

Binder: {DPPE′-Glutaryl}-GTKPPR-OH (also: built into phospholipid shell of gas-filled microbubbles) [DPPE-Glu-GTKPPR (BRU-114) in gas-filled microbubbles]
- HAEC bubble binding [16]: 1120 bubbles
- KB cell bubble binding [17]: 56 bubbles
- Bubbles Bound [18]: 1640 bubbles
- Bubbles Bound [19]: 2780 bubbles
- Bubbles Bound [20]: 1860 bubbles
- Bubbles Bound [21]: 7050 bubbles
- HAEC bubbles bound [22]: 1420 bubbles
- RAEC bubbles bound [23]: 751 bubbles
- Bubbles Bound [24]: 555 bubbles
- Bubbles Bound [25]: 726 bubbles
- Bubbles Bound [26]: 1250 bubbles
- % more bubbles bound than with the 1% composition [27]: 31%
- Bubbles Bound % (of control binding) [28]: 100 % of control
- Bubbles Bound [29]: 737 bubbles
- Bubbles Bound [30]: 953 bubbles
- Bubbles Bound [31]: 950 bubbles
- Bubbles Bound [32]: 1520 bubbles
- Bubbles Bound [33]: 1360 bubbles
- Bubbles Bound [34]: 1020 bubbles
- Bubbles Bound [35]: 1250 bubbles

The remaining lines, values ahead:

- beads bound at 1.53 dynes/cm^2 [5]: 86 beads
- Integrated density of bound beads (arbitrary units) [1]: 230
B1: TKPPR-conjugated fluorescent beads (peptide)
peptide: TKPPR
modifications: also: coupled by EDAC to carboxylate-modified fluorescent FluoSpheres beads, many copies per bead

- IC50 [6]: 10 µM
B2: TKPPR tetramer BRU-326 (OG-(TKPPR)4) (peptide)
peptide: TKPPR-OH
modifications: not fully specified (N-terminus); printed as OG-(TKPPR)4; also: tetramer: four TKPPR arms on branched scaffold carrying one Oregon Green

- Bubbles Bound % (of control binding) [7]: 97 % of control
- Bubbles Bound % (of control binding) [8]: 78 % of control
- Bubbles Bound % (of control binding) [9]: 88 % of control
Binder: CTKPPRC [Linear CTKPPRC (BRU-305)]

- IC50 [10]: 280 µM
- Bubbles Bound in presence of competitor [11]: 1150 bubbles
- Bubbles Bound in presence of competitor [12]: 976 bubbles
- Bubbles Bound in presence of competitor [13]: 1170 bubbles
- Bubbles Bound in presence of competitor [14]: 904 bubbles
- Bubbles Bound in presence of competitor [15]: 556 bubbles
Binder: TKPR [Tuftsin (TKPR)]
